# Results taken from PMC4251702.
# Columns and labels:
# [1] = target: rabbit muscle G-actin, biotinylated (rabbit) (UniProt P68135)
# [2] = target: P. falciparum G-actin, biotinylated (P. falciparum 3D7 (endogenous in merozoites)) (UniProt Q8I4X0); assay: BLI
# [3] = target: P. falciparum F-actin, biotinylated (P. falciparum 3D7 (endogenous in merozoites)) (UniProt Q8I4X0); assay: BLI
substance,measurement,setting,value
PfMTRAP cytoplasmic tail domain peptide (residues 452-498),"initial rate of polymerization of 2.5 μM pyrene-labelled rabbit actin with 50 μM MTRAP CTD peptide, without aldolase (control without addition 35, bovine serum albumin 34) (fluorescence units min^-1)",[1],66
Plasmodium falciparum aldolase (from UniProt P14223 1-369) (enzyme),Kd,[2],0.47 µM
same,Kd,[3],0.37 µM
RH1 cytoplasmic tail domain peptide (residues 2942-2971),"initial rate of polymerization of 2.5 μM pyrene-labelled rabbit actin with 50 μM RH1 CTD peptide, without aldolase (control without addition 35, bovine serum albumin 34) (fluorescence units min^-1)",[1],69
